The target of this data set is T1, PUF4 RNA-binding domain (Saccharomyces cerevisiae, UniProt P25339 537-888).
T1 sequence: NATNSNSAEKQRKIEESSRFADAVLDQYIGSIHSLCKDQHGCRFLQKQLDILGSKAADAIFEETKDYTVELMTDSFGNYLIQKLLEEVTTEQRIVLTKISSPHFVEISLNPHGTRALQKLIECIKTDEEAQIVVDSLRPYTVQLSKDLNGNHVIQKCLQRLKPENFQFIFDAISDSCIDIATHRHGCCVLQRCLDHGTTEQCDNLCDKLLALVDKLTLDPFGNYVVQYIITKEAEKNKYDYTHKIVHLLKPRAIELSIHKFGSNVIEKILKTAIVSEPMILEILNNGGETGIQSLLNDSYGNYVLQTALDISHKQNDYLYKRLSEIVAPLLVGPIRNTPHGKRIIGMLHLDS
Description: Mg; RNA-MaP; 20 mM Na-HEPES pH 7.4, 30 mM KOAc, 0.75 mM MgCl2, 0.1% Tween-20, 5% glycerol, 0.1 mg/mL BSA, 2 mM DTT; 25 C; 0.0125-409.6 nM protein. As to conditions: tags: N-His6-TEV cleaved; C-SNAP kept, Cy3B-labelled; label: tethered on chip by stalled RNA polymerase.

Consider UCUCUUUGUGUAUUCUCUCUU (ssRNA) [Ib_S1_P4E.1_K4.1_C4.1_H4.1_[A4G]_A4.1_F4.1_[A9C]_T4.1], for which binding was put at a Kd of 40.4 nM.

Take UCUCUUUGUUUAUUGUCUCUU (ssRNA) [Ib_S1_P4E.1_K4.1_C4.1_H4.1_[A4T]_A4.1_F4.1_[A9G]_T4.1]: the Kd (usually the constant that tells how readily two partners part at equilibrium) turned out to be 163 nM. This Kd lies about 4-fold higher than the previous one.

On to UCUCUUUGUCUAUUCUCUCUU (ssRNA) [Ib_S1_P4E.1_K4.1_C4.1_H4.1_[A4C]_A4.1_F4.1_[A9C]_T4.1], for which the Kd amounted to 1920 nM.

B1: Ic_S4_P4E.1_K4.1_C4.1_H4.1_A4.1_[T5G]_[A6C]_[T7G]_F4.1_[T8G]_[A9C]_T4.1 (ssRNA)
RNA: UUUGACAACUGAUCGUUCUUUCUUGUAGCGGCUUCUUUCUCGAUCAGUUGUCUUU
As for B1, the dissociation constant (Kd) is > 2300 nM.

B2: Ic_S4_P4E.1_K4.1_C4.1_H4.1_A4.1_[T5G]_[A6C]_[T7A]_F4.1_[T8G]_[A9T]_T4.1 (ssRNA)
RNA: UUUGACAACUGAUCGUUCUUUCUUGUAGCAGUUUCUUUCUCGAUCAGUUGUCUUU
B2 returned a Kd of 495 nM.

B3: Ic_S4_P4E.1_K4.1_C4.1_H4.1_A4.1_[T5G]_[A6C]_[T7A]_F4.1_[T8C]_T4.1 (ssRNA)
RNA: UUUGACAACUGAUCGUUCUUUCUUGUAGCACAUUCUUUCUCGAUCAGUUGUCUUU
The molecule B3 returned a dissociation constant Kd of 772 nM.

B4: Ic_S4_P4E.1_K4.1_C4.1_H4.1_A4.1_[T5G]_[A6C]_[T7A]_F4.1_[A9C]_T4.1 (ssRNA)
RNA: UUUGACAACUGAUCGUUCUUUCUUGUAGCAUCUUCUUUCUCGAUCAGUUGUCUUU
B4 returned a Kd of 61.1 nM.

B5: Ic_S4_P4E.1_K4.1_C4.1_H4.1_A4.1_[T5G]_[A6C]_[T7C]_F4.1_[T8C]_[A9G]_T4.1 (ssRNA)
RNA: UUUGACAACUGAUCGUUCUUUCUUGUAGCCCGUUCUUUCUCGAUCAGUUGUCUUU
With B5, the Kd was determined as 1440 nM.

B6: Ic_S4_P4E.1_K4.1_C4.1_H4.1_A4.1_[T5G]_[A6C]_[T7A]_F4.1_[T8A]_[A9C]_T4.1 (ssRNA)
RNA: UUUGACAACUGAUCGUUCUUUCUUGUAGCAACUUCUUUCUCGAUCAGUUGUCUUU
Molecule B6 showed a Kd of 1350 nM. This Kd and that of the molecule before are within 1.5-fold of each other.

B7: Ic_S4_P4E.1_K4.1_C4.1_H4.1_A4.1_[T5G]_[A6C]_[T7C]_F4.1_[T8C]_[A9C]_T4.1 (ssRNA)
RNA: UUUGACAACUGAUCGUUCUUUCUUGUAGCCCCUUCUUUCUCGAUCAGUUGUCUUU
The molecule B7 had a Kd of 786 nM.

B8: Ic_S4_P4E.1_K4.1_C4.1_H4.1_A4.1_[T5G]_[A6C]_[T7C]_F4.1_[A9C]_T4.1 (ssRNA)
RNA: UUUGACAACUGAUCGUUCUUUCUUGUAGCCUCUUCUUUCUCGAUCAGUUGUCUUU
The molecule B8 displayed a Kd of 747 nM.

B9: Ic_S4_P4E.1_K4.1_C4.1_H4.1_A4.1_[T5G]_[A6C]_[T7G]_F4.1_[T8C]_[A9C]_T4.1 (ssRNA)
RNA: UUUGACAACUGAUCGUUCUUUCUUGUAGCGCCUUCUUUCUCGAUCAGUUGUCUUU
In turn, B9 came in with a Kd of 1050 nM. This Kd and that of the molecule before are within 1.5-fold of each other.

B10: Ic_S4_P4E.1_K4.1_C4.1_H4.1_A4.1_[T5G]_[A6C]_[T7C]_F4.1_[T8A]_[A9T]_T4.1 (ssRNA)
RNA: UUUGACAACUGAUCGUUCUUUCUUGUAGCCAUUUCUUUCUCGAUCAGUUGUCUUU
Turning to B10, the dissociation constant Kd was found to be 428 nM.

B11: Ic_S4_P4E.1_K4.1_C4.1_H4.1_A4.1_[T5G]_[A6C]_[T7A]_F4.1_[A9G]_T4.1 (ssRNA)
RNA: UUUGACAACUGAUCGUUCUUUCUUGUAGCAUGUUCUUUCUCGAUCAGUUGUCUUU
With B11, the Kd was 51.3 nM.

B12: Ic_S4_P4E.1_K4.1_C4.1_H4.1_A4.1_[T5G]_[A6C]_[T7C]_F4.1_[T8A]_T4.1 (ssRNA)
RNA: UUUGACAACUGAUCGUUCUUUCUUGUAGCCAAUUCUUUCUCGAUCAGUUGUCUUU
As for B12, binding was put at a Kd of 780 nM. Against the preceding molecule, the Kd is about 15-fold higher.

B13: Ic_S4_P4E.1_K4.1_C4.1_H4.1_A4.1_[T5G]_[A6C]_[T7C]_F4.1_[T8C]_T4.1 (ssRNA)
RNA: UUUGACAACUGAUCGUUCUUUCUUGUAGCCCAUUCUUUCUCGAUCAGUUGUCUUU
B13 yielded an equilibrium dissociation constant (Kd) of 997 nM.

B14: Ic_S4_P3E.1_K3.1_C3.1_H3.1_A3.1_[T5A]_[A6T]_F3.1_[A8G]_T3.1 (ssRNA)
RNA: UUUGACAACUGAUCGUUCUUUCUUGUAAUUGUUCUUUCUCGAUCAGUUGUCUUU
The molecule B14 showed a Kd of 220 nM.

B15: Ic_S4_P3E.1_K3.1_C3.1_H3.1_A3.1_[A6C]_F3.1_[T7G]_[A8G]_T3.1 (ssRNA)
RNA: UUUGACAACUGAUCGUUCUUUCUUGUAUCGGUUCUUUCUCGAUCAGUUGUCUUU
With B15, the Kd is 1930 nM.

B16: Ic_S4_P3E.1_K3.1_C3.1_H3.1_A3.1_[A6T]_F3.1_[T7A]_[A8C]_T3.1 (ssRNA)
RNA: UUUGACAACUGAUCGUUCUUUCUUGUAUUACUUCUUUCUCGAUCAGUUGUCUUU
Consider B16, for which the affinity, expressed as Kd, was 123 nM.

B17: Ic_S4_P3E.1_K3.1_C3.1_H3.1_A3.1_[A6C]_F3.1_[T7A]_[A8T]_T3.1 (ssRNA)
RNA: UUUGACAACUGAUCGUUCUUUCUUGUAUCAUUUCUUUCUCGAUCAGUUGUCUUU
As for B17, binding was characterised by a dissociation constant (Kd) of 8.55 nM.

B18: Ic_S4_P3E.1_K3.1_C3.1_H3.1_A3.1_[A6T]_F3.1_[A8G]_T3.1 (ssRNA)
RNA: UUUGACAACUGAUCGUUCUUUCUUGUAUUUGUUCUUUCUCGAUCAGUUGUCUUU
B18 showed a Kd of 46.7 nM.

B19: Ic_S4_P3E.1_K3.1_C3.1_H3.1_A3.1_[A6C]_F3.1_[T7C]_[A8G]_T3.1 (ssRNA)
RNA: UUUGACAACUGAUCGUUCUUUCUUGUAUCCGUUCUUUCUCGAUCAGUUGUCUUU
For B19, the Kd was 392 nM. Compared with the last molecule, the Kd is about 8.4-fold higher.

B20: Ic_S4_P3E.1_K3.1_C3.1_H3.1_A3.1_[T5A]_[A6T]_F3.1_T3.1 (ssRNA)
RNA: UUUGACAACUGAUCGUUCUUUCUUGUAAUUAUUCUUUCUCGAUCAGUUGUCUUU
B20 gave a Kd of 65.6 nM.

B21: Ic_S4_P3E.1_K3.1_C3.1_H3.1_A3.1_[A6G]_F3.1_T3.1 (ssRNA)
RNA: UUUGACAACUGAUCGUUCUUUCUUGUAUGUAUUCUUUCUCGAUCAGUUGUCUUU
In the case of B21, the Kd is 27.4 nM.

B22: Ic_S4_P3E.1_K3.1_C3.1_H3.1_A3.1_[A6T]_F3.1_T3.1 (ssRNA)
RNA: UUUGACAACUGAUCGUUCUUUCUUGUAUUUAUUCUUUCUCGAUCAGUUGUCUUU
The molecule B22 showed a Kd of 15.3 nM.

B23: Ic_S4_P3E.1_K3.1_C3.1_H3.1_A3.1_[A6T]_F3.1_[T7G]_[A8G]_T3.1 (ssRNA)
RNA: UUUGACAACUGAUCGUUCUUUCUUGUAUUGGUUCUUUCUCGAUCAGUUGUCUUU
On to B23, for which the Kd amounted to 2130 nM.

B24: If_S4_P3E.1_K3.1_C3.1_H3.1_A3.1_F3.1_T3.1 (ssRNA)
RNA: UUUGACAACUGAUCGUUCUUUCUUGUAUAUAUUCUUUCUCGAUCAGUUGUCUUU
Molecule B24 had an equilibrium dissociation constant (Kd) of 1.99 nM.

B25: Ic_S4_P3E.1_K3.1_C3.1_H3.1_A3.1_[A6C]_F3.1_[T7A]_[A8C]_T3.1 (ssRNA)
RNA: UUUGACAACUGAUCGUUCUUUCUUGUAUCACUUCUUUCUCGAUCAGUUGUCUUU
Take B25: binding was put at a Kd of 80.4 nM.

B26: Ic_S4_P3E.1_K3.1_C3.1_H3.1_A3.1_F3.1_[T7G]_[A8T]_T3.1 (ssRNA)
RNA: UUUGACAACUGAUCGUUCUUUCUUGUAUAGUUUCUUUCUCGAUCAGUUGUCUUU
Consider B26, for which the affinity, expressed as Kd, was 23.1 nM.

B27: Ic_S4_P3E.1_K3.1_C3.1_H3.1_A3.1_[A6T]_F3.1_[T7A]_[A8G]_T3.1 (ssRNA)
RNA: UUUGACAACUGAUCGUUCUUUCUUGUAUUAGUUCUUUCUCGAUCAGUUGUCUUU
Turning to B27, binding was characterised by a dissociation constant (Kd) of 944 nM.

B28: Ic_S4_P3E.1_K3.1_C3.1_H3.1_A3.1_F3.1_[A8T]_T3.1 (ssRNA)
RNA: UUUGACAACUGAUCGUUCUUUCUUGUAUAUUUUCUUUCUCGAUCAGUUGUCUUU
As to B28, the affinity, expressed as Kd, was 3.03 nM. This Kd lies about 310-fold lower than the previous one.

B29: Ic_S4_P3E.1_K3.1_C3.1_H3.1_A3.1_[A6C]_F3.1_[A8G]_T3.1 (ssRNA)
RNA: UUUGACAACUGAUCGUUCUUUCUUGUAUCUGUUCUUUCUCGAUCAGUUGUCUUU
As for B29, the Kd is 23.4 nM.

B30: Ic_S4_P3E.1_K3.1_C3.1_H3.1_A3.1_[A6C]_F3.1_[T7C]_[A8T]_T3.1 (ssRNA)
RNA: UUUGACAACUGAUCGUUCUUUCUUGUAUCCUUUCUUUCUCGAUCAGUUGUCUUU
On to B30, for which the Kd came out at 27.6 nM.

B31: Ic_S4_P3E.1_K3.1_C3.1_H3.1_A3.1_[A6C]_F3.1_[T7G]_[A8T]_T3.1 (ssRNA)
RNA: UUUGACAACUGAUCGUUCUUUCUUGUAUCGUUUCUUUCUCGAUCAGUUGUCUUU
Consider B31, for which the Kd is 178 nM.

B32: Ic_S4_P3E.1_K3.1_C3.1_H3.1_A3.1_[T5A]_F3.1_[A8T]_T3.1 (ssRNA)
RNA: UUUGACAACUGAUCGUUCUUUCUUGUAAAUUUUCUUUCUCGAUCAGUUGUCUUU
For B32, the affinity, expressed as Kd, was 19.3 nM.

B33: Ic_S4_P3E.1_K3.1_C3.1_H3.1_A3.1_[A6G]_F3.1_[T7C]_[A8T]_T3.1 (ssRNA)
RNA: UUUGACAACUGAUCGUUCUUUCUUGUAUGCUUUCUUUCUCGAUCAGUUGUCUUU
As for B33, binding was characterised by a dissociation constant (Kd) of 54.5 nM.
